Data reported in the DeepSol protein solubility set.

Test: soluble on expression in E. coli; label from the status in PepcDB or PDB records

Sequence	soluble on expression in E. coli
MAHHHHHHMPLTDEIQLEQLAPTIKGDASWSTGPIYVVCDVGGTNARVGFARAAQHEGSGLHIIYVRFRVTKRDIRQLLEFFDEVLQHLKKNLPYRAGPFLRRVASGAVSVPGPLTNGQLAGPFSNLKGIARLADYPVELFPRGRSALLNDLEAGSYGVLALSNAGMLSDYFKVMWKGTQWDALSEGKPVGSTIGHGRCMVVAPGTGVGSSLIHYVGVSDSYVVLALECGCLSMSWCANEDSKYVQALAGYMASKARVKGLDSTVAPIWEAAANGSGLEFNYAYEKEGPKASAPLKSAPEVAKLAKAGSDPAAVAAMDRLYKNLIGLTAETTMQFLPLTCVLMGDSIVSNSFYFDNPENVKKLQARINEHTMERQLKFLSRTTFLRQVRSVNINLLGCLEFGSQLSNRADQLAPTKSNL	not soluble
MAHHHHHHMPLYRLSVSAETEGVVCIRPMRPRNWGLKVTCDACREFSPNFVYVDESEECDSGGGGTRNAAFKCASCKTLITAHIDPESYGTYRPEEDNGKGDGNSILIIEVRGATPTELEIDDKWVVEAEGATFEAADLSTDWMEYDEKSGNAVSVSQFTVEFSRLKK	soluble
MAHHHHHHMQKTLFDFVRKGTSSGPAAANAVAAAHRERQWPSASNGEDSTPRTDSPPKKHAKTRREGSRSRGNSRECEGTSLKGASRDDAIDLDASVSVALLESTFPPSEEGGAIDKSKHVSSGTAVPAGAAATAAASSGTARSDAPQLQPAATSSRWLAGLITNLEWRDFLAPITVDSWRSGAFARIEHFLDGEMAKGKVILPPATDIFNAFNSCPFRDLKVVLLGQDPYHDLHQAHGLCFSVLPEVPLPPSLRNIYKELTTDIPGFQAPRHGYLQSWSEQGMLMLNATLTVEAHKANSHSKASGWTAFTDAVIQHLSQHHPNRLVFLLWGGYAQQKKKLIDASRHIVLESVHPSPLSASRGWFGCHCFSACNEALQSMGHLPMHWQLPLNASLP	not soluble
MAHHHHHHMQRWPCRRCCRAATLGSRTFVLVRRRAPSAFITTASHASSGAAPPWTVAHQRVCIIIPPVEKLTTPPSPRLSRRYVDSQTLDDSRTQQADAQEPDHFRFAIKNSERGLLDHGVTPDAIAFIAEAEEEYRASSSYLHDRPGGAGMPESETHVDEVTGQQTTTTRIAAPFGETYVPSNRERFAERQRVGELSRQLNLVDKPFMLDEHAQLNLRKERQLCELLASPMPQLAKADEVAHFLLNGVYAQNLALQPRSCESVMLLYSHASFLRRLEGPTKQLTGRAHDAARLAAPSSGADTRAVPRTPQDVPFLDDMRRLYTHQKRCFISPTPLSLEHFMTTLSVITAPSTTAFHLANRLLLDADKFVLLPTRTTYTAYFTVCHVNNAMQFAMARYTDAVQALQLPVDAPMLTALLKGLNESGYVEEAVSLLSRIGHVAVSTPLLNASLETLLLSEQALACFSLYDAMRGSSVKPNAETYTLLLLACEKSQQWRRVTAILAEMQRRRVRGNEQTLNLLLKGLLQERLHSYAAQLYHTMLAKKVPLWPALELGVRPLLR	not soluble
MAHHHHHHMQSNSAPVSYGAQLRASMQTLRANDTQFEQFTRGLGAVLQQWTALQLVAQHCDSRAPAVLYEDLCAWHKHDGEVYVDDMEVYFEEFFDNIRSARIEDDSMQEVGTVLHDMYCRCCLNDFSLVEHYLETLAMYVQTNPVAMSVNGGTNENLEDDAEEDAELGGDAVCEEGVDNEDEESEPMQAPTPKAPQQPPQPPRHQQQPQRKKRKNTSVRSRDGWNIVQ	not soluble
MAHHHHHHMRAIQTLFIHSDKRVFLFPNTSNRTKYPSLITFPKIVLYSTPEAKRYRCVQKYLSTDFSSCSDNPHEILGRILRVPQSRSSMRKMLFTIPGIDPIQGILNGSRVCNELIRIKDVTWNRPHLIHAFFDHLPVFRFFLRSLVTLHPRTHRLHIHLVRAIHDDSRRSFLFLSFIIVAHAWR	not soluble
MAHHHHHHMRASTPPLYQRQPEGLAPSYNTGLPLAMPDVPTLRIPQHLSATSHAMPPTAAAQGEFVMAATAPRLGSLETSTRATNPAPFITQFPAAQAPNLHGYVSASPRTSGTGTETSASDYFRYAANLMRNTLPPPMTELAALEEEEKSLKREEEELRPQIIELERMREQLEEQTQKVAVELMQMVVLEQQYYVEPIVDYTAQIKNAEVQCVHLASRVEEAKHSLEELQRQHQSYDAVMEEKERLKKETCAVRERFATLENRRRLCMLQSEALFDVESRRGEEAASQAEETENQLMEMRNNEPLLGIKRSRRSSRSMSRGVSFAQKSIVLDTGSDGDDDGYARSTRHTGDTVSGLTQRGSWNSAGAEDEESEQDCDRDDICGISGQSVRYSLNDTKRVQLVVPAV	not soluble
MAHHHHHHMRCFSTKSTAPTKGFHDNASGKGSNSVPVKSSALFIEALSKRRTIYSLGNKLSQSHSEVIEIIEGTIRECPSSFNIKSSTVVILFGADHQKVWDIVKAALKKVTSEEQYAQSEMKVNNSFAAGAGTILFYEDGAAIKMQQKAFPRYAANVSTFSQQSSAMAQFAVWSALAQDGIGASLQHYNELIEADLRAAFDVPEEWQLIAQMPFGSIETPADKKTRNSDKGRVVVHGAQR	soluble
MAHHHHHHMRCGGRWIVERSDGFVIEVEKPGVSVVFGRDIGLPSAQRMDGKYVSRQQFSVEWKASSLHVRQLGKNPTFYSMEFHTLPGDGTAEKELVCCREEETREGKQMGDGGKGLNVILVPPVSNENFLASLRGGAKGIEPATLHFPGELNLPRFTVRYVVADEKSSEEKISREMLTVPLGSSKSDEVEEDERANQPWMTGSWRGILDSVLHEQQQQQQQAER	not soluble
MAHHHHHHMRDPQKNCDDVVALRETLKERAGEMAKKMKENERELFLNPMPLGISCDGLPLDTDPEFHALEVARLRERQEESCDEAKIHKLNDALNERAEDLARAKLAADRQYLNPEHLRVAVDELPLNEDRNFILKEALRQEKLQNSRESAAAIAALENELNNMAKAMAAEMLAKQRPSYLAPEHHGRRIEDLPLNDSDDFLKKERRRRDLLKQPSWDIDVVAEIDKELSEMADAMARAMNAAERPQYMKASYYDKTLSELSLDTDSIIARLEAQRARLKRNPVRNAEAIHATEAAIISRAEALAKASINVGRGGVFSASQAECRSISLTSMEANSFNLLRRRGWSS	soluble
MAHHHHHHMRLILLGAPGAGKGTQANFIKEKFGIPQISTGDMLRAAVKAGTPLGVEAKTYMDEGKLVPDSLIIGLVKERLKEADCANGYLFDGFPRTIAQADAMKEAGVAIDYVLEIDVPFSEIIERMSGRRTHPASGRTYHVKFNPPKVEGKDDVTGEPLVQRDDDKEETVKKRLDVYEAQTKPLITYYGDWARRGAENGLKAPAYRKISGLGAVEEIRARVRRAQVSE	soluble
MAHHHHHHMRQGRVRTESTVQRFAKTPIGEGFDLWDRDYLLGAMRLFLFKAETAPPFQVGPCMDATGEILVQLEELEDAREQFSIAAEKYLITQQQQLAKIMEIKALECERGPQAALEELTAFLKKETASTNATAVPAPITRAYAYQAELLLKTATPETPELFTEAVETAKLACNHAWDRVHMGYVVLGDALKASGCPDEARKAYSEAFETNRNCITALERHIEVLKEYIAESNDDMRIEALRKELLPLLESAISLHPRPTLIREKAFLLSETLGDAAALEFLDPLICNPPPEEADAAGNVGGRTVATLLKAKAAILADGGKMQEALEVAEAALKESPSDEEAKAIVAELRESL	soluble
MAHHHHHHMRQTGSFQPFFLRGKVVHGKGRGGSQLGFPTANIGLDKDVMECLQPYKNLVVYGWGTVSQVPGKERESFGPYPFAASIGFNMQFDEKTLTVEPYFLHEFGWDFYGAVVKIIVLGEIRSMGSFHSLQALVDTIKSDVQFTRDMLQKPQLQEFSRHSLFESPSSTIPYFEDLPDE	soluble
MAHHHHHHMRSLPNIIVTGVPGVGKTTLCEELVEILNKQLKENQQAESASQMKHLNLSKVIKEERLYEEFDDQLDASIYSSDMVNEKLEKLKLENGGYIIDFHDVDFLDEKELIDHIFLLTASTNKLYERLEKRNYSEEKIKNNIECEIFQVIKEDILTSYNDPSIFDELENNDMEQYESNLQLIKGWVLSWVKNGVAMPR	soluble
MAHHHHHHMSAPTALTVPRRSASDAALADATRRELEEEMGRSDKPEQPTPPAGWQVVRKPGTCTFDLTKSFEGEDLVVRYSTNQDSDKANSHNIFVYITQKNGQTMQADLSIEEGELVLNNIRFYDEAALAKDTGAEAEAKRNELYTGPLVHELDYDLLNCVMTYLEKRGVDEKLGEFVVLYSFWAEQQDYEAWLTTMNKFAS	soluble
MAHHHHHHMSEARQIQSMIDFIEREAQEKAEELEAAAQEEYDVEKMRLVEAEKAKIRAMAEKKLKQVDVDRRVARANYSKVQRMRVMEERARTMEKLHEQTRQKIVAMVNNPPQYKPMLVRLIHQSLMSIRTDAVVQCRKEDEAEVVRSIPELERWYKEKTGATISIQTSKTYLDTAEAWGGVVVKSTDGRVVCNNTLSYRTKTCFDEQLPTVRFHLFNPDAPL	soluble
MAHHHHHHMSEENNIRKGPSFVFHDIKKKRMREIILMCNKKKQKKMLLKSLNIKFIYEEKNKKRVKIHVDNFLPVSINSDMEIIKKYKEILYDDNYCNIYDINKLKIGKMKKILKDFFYDIFLFCKYIFYKFIYKCQNIINLFLEYKQIMLSHCINRVPYFIKVFSFSSLHILLKYSIRSFFKNYSFYKYIFTPNYKICFLCIHKNSYYSEIEKEDTSQICFDDVSTCQEINILGSEEYLRGLVTSSVGFIDNYDDKNRGNNFLEIFQKHMNIFDIKKDDVHFKINKYEQRIDIEKAFSHIKNNILQKYDERRREKKKDNDKLIRRVQNMYDDVENKIMSSLKKILDITNYDEEREKC	soluble
MAHHHHHHMSELQAAAGVFGRGTAAGDAIYRCYARPTKESTLDPELLARLQKMRLEREAAEAALFRPKPVPKSKAMISRPRVGLGRRISEEEIARRRLDALPHKKREESIQRELRAFGRPSLLPPLYKSPPITVAEKERLRQIFQFGELPPKPLNFTGANRVRYALIDRRFRLKDRFETLKKHVDALREELRQLRQQPQKSALPETVADGKGNENEIIPSGAEIIRRFHRRDPVMALERRMLEQELTTSIGEVLQEMKEIDFDLRQLDENEAKRYIPKP	not soluble
MAHHHHHHMSEQNGAHSLQAELERMNAAIESYALQLDTINSAIESIDSENHSDDVSRQIFEYQTACERDPANISAEDALDTVTRLENTLKIVRRRNQLLAKENATQQKLLNDRSKFLLKETKNYENLVDRTGWHEQCSLNPEDEAQKASDIQEMSQLEVTVQRELRAAHTILKKKEALLRGLEEQLAKGTDLDAELNNAYNDIRVRKRECRELELRLEHLRKCSKKNDEALTVFENHGQSVSIEYMETDKDFLKDAVAQMKLVCRRQDNVIRAQLTRQQQLQTRLDTILRSLREMNLEKEYERNVSKSALVPSASREEPEDVSSILPKEETIPIHTYRLIFKNKELMNTNVVRKNMLVLEKEGVIQALEASLMKYANALNMTTRQLENMKINKGFEMTELMVELQQQHKNYLQQLEQIMQENNKLKKQLYRTPQLRTLIKNR	not soluble
